Experimental data reported in paper PMC4663276.

Key:
[1] = target: TirM-ΔVBS1 (TarP VBD deleted for VBS1, Thr714-Arg832, fused to TirM) (Chlamydia caviae strain GPIC)
[2] = target: TirM-TarP FL (full-length C. caviae GPIC TarP fused to TirM) (Chlamydia caviae strain GPIC)

vinculin (natural protein)
frequency of vinculin recruitment to Δtir EPEC-clustered TirM fusion at the plasma membrane of Cos7 cells (immunofluorescence), decrease relative to WT VBD [1]: 1.6 fold
frequency of vinculin recruitment to Δtir EPEC-clustered TirM fusion at the plasma membrane of Cos7 cells (immunofluorescence), TarP-FL relative to TirM-TarP1-714 [2]: 3 fold
